Assay results as given in the RNAGym collection of RNA variant scans (doi:10.1073/pnas.2313332121).
Variants at the floor of the assay were thinned out.

B1: TPR 5TU (parent)
chain: GGAUCUUCUCGAUCUAACAAAAAAGACAAAUCUGCCACAAAGCUUGAGAGCAUCUUCGGAUGCAGAGGCGGCAGCCUUCGGUGGCGCGAUAGCGCCAACGUUCUCAACUAUGACACGCAAAACGCGUGCUCCGUUGAAUGGAGUUUAUCAUG

Variants of: B1
Assay: polymerase ribozyme fitness, log enrichment relative to wild type (log ratio); higher = more active; in vitro selection for triplet polymerase activity
Summary of the method: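 Only genotypes with ≥10 input reads and ≥1 read per output were kept after Illumina sequencing of input and output libraries. These libraries were PCR-built, transcribed mutants of each subunit of a heterodimeric triplet polymerase ribozyme, each put through one triplicate in vitro selection round with frozen incubation at −7 °C, gel excision of extended constructs, streptavidin-bead capture and RT-PCR. Fitness is a logarithmic ratio of genotype enrichment to wild-type enrichment, from inverse-variance-weighted replicate averages, with the logarithm in base 2.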

Variant | polymerase ribozyme fitness (log ratio)
C54U U78A G86U U104C C105A U130G C132A G136A | ≤ -4.2
C38U C85U C105U C123G | 0.319
A60G G70C U77A U135G | ≤ -4.2
C75U G86C A115U | -2.41
A12G G92C G133U | -3.59
A120U A137C A138U | -4.19
A19U C38G G59C G86A C99U G117U C118A U127A A138G | ≤ -4.2
U77G G117U | ≤ -4.2
A20U U53A | -2.36
G58C U61C G70C C76G C96U A138G G140U C149G | ≤ -4.2
C27A C85A G86U A91C U101A C118G | ≤ -4.2
A47G C87U | 0.257
U7G G92U | -2.39
G58U U61A U90A A142G | ≤ -4.2
A28C C51U C57A A73U C87G U101G A121U | ≤ -4.2
U7G C85A | -3.43
U33G C72U C95A G126U A137G | ≤ -4.2
A137G U145G | -1.02
A24C G50C C96G A110U | ≤ -4.2
A3G U56C C87A G92C | -2.12
C76U G84A U104G U151C | ≤ -4.2
C35U G86U | -1.43
C38U A47C U53A A142C | -3.39
U61A U78A C95U C123A U146A | ≤ -4.2

Variant | polymerase ribozyme fitness (log ratio)
A3C A52C U55A C57A G81A G94C | -4.03
A20U C32G C57U A73G U82G G92A | ≤ -4.2
C63G U90A C99G U148A | ≤ -4.2
A28G U55A | -2.49
C76U G81A | 0.573
G83C U148G G152A | -3.67
G83A C85U A106C C132G G140A | ≤ -4.2
U78G U127C | ≤ -4.2
C96G A122G U139G | 0.0535
U7A G94A | -3.07
U33G A52G A73G G92C A107U C114U C125U U134C G141C | ≤ -4.2
U15A A47G U56A C57U G124C C149U | -2.48
A20U G83U U90G C99A A107U U148A | ≤ -4.2
A20U U53A A120G | -2.23
C5A A20C C35A G62A C76A C96G G140A G143C | ≤ -4.2
A30C A47G G70U U102G G126U G152U | ≤ -4.2
G34C A39C U55A A60U A73U U146G | ≤ -4.2
A20G C93A C132G U134G U148G | ≤ -4.2
A20C G81C C87U | -1.28
U145G U151G | -4.07
U4A C8A A20U A29C A40G G70C U101A A120U | ≤ -4.2
A52G C108U | -2.1
G68A A138G | ≤ -4.2
C5G U82G G86U A121G | -2.13

Variant | polymerase ribozyme fitness (log ratio)
C5G A73U G124A | -1.49
C43G C54A U55A A73G G74C G124C | ≤ -4.2
C14G A40G A73G C85U U139A | ≤ -4.2
G83U G143U | -1.68
C10A U33G A60G C75A A106U G117U A137C U144A | ≤ -4.2
G11A G34C A47G C103G A121U | ≤ -4.2
U15A A39U C96U C114A A122G C123U C125A | -4.11
C76A C79U C96A U139A | ≤ -4.2
U6G A29C A73U G86U | ≤ -4.2
G83A C85U | -1.94
C51U U55A U56A G58C U82A A150C | ≤ -4.2
C35A A52C C79G C96U U127C C149A | ≤ -4.2
A29U A39G C57G A66C C85G A91U | ≤ -4.2
A30U U45A G50C C79G G83C G126C | ≤ -4.2
A64C G83C A89U U134A G141A | ≤ -4.2
C18G C93U A98G A120C G141U | 0.17
G11C A20U C36U A60G C93G | ≤ -4.2
U90C A147U | -3.58
C35U A106U A142U | -4.15
A29C G50C C114U | ≤ -4.2
A20U A52G G58A C76G G81A G86A A122C | ≤ -4.2
A17C G133A U144A A147C | -3.99
A17G A22G U82C C99A | -2.88
A24U C76G A138G | ≤ -4.2

Variant | polymerase ribozyme fitness (log ratio)
A40C C75G C85A G141U | ≤ -4.2
C18U C93U C99U A150G | -2.85
C38A C43G C105G C116U | ≤ -4.2
G25A U33A G83C A91U G94A A121U C131U | ≤ -4.2
C51A G86C A89U A113U G126A G141U | ≤ -4.2
A19C G65C C69G C85U C87G U102G A121G G124A U139G | ≤ -4.2
A49G G83U | -1.22
U33G U44A A142G | ≤ -4.2
A3C G58C C63U C95G | -1.68
A19G A37U U101G | -2.14
G25U G59A G62C C116U U145A | -1.79
A26C A64G G83U C85G A115G | ≤ -4.2
G83C A115U A120U | -1.99
C14G U61A C87U C95G U135G A142C | ≤ -4.2
A37C C95U C103G C118G | ≤ -4.2
G83A C105A | -3.15
A19C C51A C75A C93A G117C | ≤ -4.2
C14A A41C C76U G84U | -2.89
G42C U44A C54G A91U C99U G143C U145C | ≤ -4.2
A24G C57U | -3.7
A17G C32A C51A U55A A60C G74A G81A U90G C95A | ≤ -4.2
C5U U15A A17G C18U G42A U53A U55A A60C G68C C79U A91C A97G | ≤ -4.2
A91G G126A G141A | -3.67
A3G U7G G46A A47U C51U G94C C125U G143A | ≤ -4.2

Variant | polymerase ribozyme fitness (log ratio)
C27G G67C G141A A147U G152A | ≤ -4.2
C5G G59U C99U A119G | -1.53
C18A A19G C57A C87U C129A U135G | ≤ -4.2
A22U C57A | -0.719
U45C A119C | -0.959
C57G C114A | -3.32
A20G G59C G70A | -4.05
A40C C85A G92U A119C A147C | ≤ -4.2
A37U C38U C76G C93U C96A C118U G143U | ≤ -4.2
A91G A98U | -3.95
C85G U144A A150U | -3.7
A17G G62U G68U C96A C105G U134G | ≤ -4.2
C76U A150C | -3.79
A24C U53C C118U A142C | ≤ -4.2
G59A G86U A119U G140U | -3.26
U82G C96U A137C | -3.87
C14G A40U C43U G46A G50C C85U G112A | ≤ -4.2
G92A G124C | -3.03
C27U U139A | ≤ -4.2
C51G A64C C69U G80A G86A C96U C114A | ≤ -4.2
G88U U130A A147C | ≤ -4.2
C38A C93A | -2.59
G48A A49G C54U U90G G92U C99U A121C U151A | ≤ -4.2
A73U C95A U104G | -4.05

Variant | polymerase ribozyme fitness (log ratio)
A64C G88U A150C | ≤ -4.2
G59U C96A | -0.703
C32G A37C C85G | ≤ -4.2
C36A U45A U61A C87U A97C G126A | ≤ -4.2
C35A C93G A98C C99U G141C | ≤ -4.2
A3G A89G C93U A137C A138U G140A | ≤ -4.2
C69U G84C C132G G143A | ≤ -4.2
A60C A91U C118A | ≤ -4.2
C51U C72U G92C A98G U127G A138C G140A | ≤ -4.2
G46C A49U C72U C116U | ≤ -4.2
C35U A52C C123U | -1.31
U56A G58C G92U C93A C118A | -3.82
A17U G83A G86U A142C | ≤ -4.2
C57A G65A G84U A120G | -3.08
A23U G88U C116U G140U G143U U146G | ≤ -4.2
G42C G68U C85U G128A A150C | ≤ -4.2
A39U C85G C96A A107G | ≤ -4.2
A23U G48C C54A C75G G80C C96U G140A | ≤ -4.2
G74A U82G G94U G136A | ≤ -4.2
G50U U145C | -0.536
C35G G58C C125U A147C | ≤ -4.2
A16U A21G C85G C93A C116A A150U | ≤ -4.2
C57U C85G | -2.48
U55G C79G U145A | ≤ -4.2

Variant | polymerase ribozyme fitness (log ratio)
C51G A91G G92U U101C | ≤ -4.2
U31A C57U C87U A89G G117A | -3.86
U13C U90G C116A | -4.13
A19G A98U A115U A120U | -2.62
A41G A52G C87U U144G U148G | -3.95
U61G A64C C75G C93U | ≤ -4.2
U33G G67U C85G C96G A122G G140A | ≤ -4.2
C14U A52U C54A G83U C96G A98U | -3.86
A17G C35U G83A | -0.796
U82A U102G U144G | -1.48
A17U C87U | -1.75
G86A A142C | -2.27
A49C C75A G81C C93G A106C U109A G136A | ≤ -4.2
A16C G62C | -2.47
C54A C79A G100A | ≤ -4.2
A52G U82C G92U C93U G126A | -1.76
A12G G84A G143A A147G | -3.25
U15C G84U | -0.83
C18G U56A | -0.693
A52U G59A A98G C131U | -1.78
A19C A20U C85U G136A | -0.21
U15G G46U G65A G68C C85U C116G | ≤ -4.2
U13C C27U A37G C54U A106G U109G C123G G124A | -3.57
